Experimental data reported in US20080107658A1 (AstraZeneca / MedImmune, published 2008).

What was measured:
[1] = biological target: T1, human nerve growth factor (beta-NGF) (human, UniProt P01138 122-241); experiment: purified scFv, inhibition of human NGF binding to TrkA fusion protein
[2] = biological target: T2, rat nerve growth factor (beta-NGF) (rat, UniProt P25427 122-241); experiment: purified scFv, inhibition of rat NGF binding to TrkA fusion protein
[3] = biological target: T2, rat nerve growth factor (beta-NGF); experiment: cell-based or functional assay
[4] = biological target: mouse nerve growth factor (mouse, UniProt P01139 122-241); experiment: cell-based or functional assay
mouse nerve growth factor, sequence (P01139 122-241): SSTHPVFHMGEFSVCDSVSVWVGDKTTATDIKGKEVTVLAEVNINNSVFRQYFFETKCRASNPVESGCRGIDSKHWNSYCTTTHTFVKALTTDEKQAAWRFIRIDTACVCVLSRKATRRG

[5] = biological target: T1, human nerve growth factor (beta-NGF); experiment: cell-based or functional assay

T2 sequence (P25427 122-241): as the sequence (P01139 122-241) above, with A40G, R50K, S61P, E94D, T117A counted along it
T1 sequence (P01138 122-241): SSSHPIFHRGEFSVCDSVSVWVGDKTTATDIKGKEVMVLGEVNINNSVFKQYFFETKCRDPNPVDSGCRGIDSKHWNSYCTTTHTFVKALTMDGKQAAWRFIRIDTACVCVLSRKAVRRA

Row | Binder | IC50 [1] | IC50 [2] | IC50, FLIPR calcium mobilisation [3] | IC50, FLIPR calcium mobilisation [4] | IC50, FLIPR calcium mobilisation [5] | IC50, PC12 cell survival [5] | IC50, PC12 cell survival [3]
1 | 1021E5 scFv (scFv, part only; not given: Linker and tags, V domains shown, not shown: another chain or arm of the molecule; small tags and cut ends) VH: EVQLVQSGAEVKKPGSSVKVSCKASGGTFSTYGISWVRQAPGQGLEWIGGIIPIFDTGNSAQSFQGRVTITADESTSTAYMEVSSLRSDDTAVYYCASSSRIYDYAGGDHYYYDMDVWGQGTMVTVSS VL: QAVLTQPSSVSTPPGQKVTISCSGSSSNIGNNYVSWYQQLPGTAPKLLIYDNNKRPSGIPDRFSGSKSGTSATLGITGLQTGDEADYYCGTWDSSLSAWVFGGGTKLTVL | 94 nM | 269 nM | – | – | – | – | –
2 | 1132A9 human IgG4 (antibody, V domains shown) VH: EVQLVQSGAEVKKPGSSVKVSCKASGGTFSTYGISWVRQAPGQGLEWIGGIIPIFGTGNSAQSFQGRVTITADESTSTAYMEVSSLRSDDTAVYYCASSSRIYDFEPSLIYYYDMDVWGQGTMVTVSS VL: QAVLTQPSSVSTPPGQKVTISCSGSSSNIGNNYVSWYQQLPGTAPKLLIYDNNKRPSGIPDRFSGSKSGTSATLGITGLQTGDEADYYCGTWDSSLSAWVFGGGTKLTVL | – | – | 0.25 nM | 0.33 nM | 0.39 nM | 0.9 nM | –
3 | 1145D1 human IgG4 (antibody, V domains shown) VH: EVQLVQSGAEVKKPGSSVKVSCKASGGTFSTYGISWVRQAPGQGLEWIGGIIPIFDTSNSAQSFQGRVTITADESTSTAYMEVSSLRSDDTAVYYCASSSRIYDFRTLYSTYYDMDVWGQGTMVTVSS VL: QAVLTQPSSVSTPPGQKVTISCSGSSSNIGNNYVSWYQQLPGTAPKLLIYDNNKRPSGISDRFSGSKSGTSATLGIAGLQTGDEADYYCGTWDSSLSAWVFGGGTKLTVL | – | – | 0.17 nM | 0.24 nM | 0.36 nM | 0.66 nM | –
4 | 1147D2 human IgG4 (antibody, V domains shown) VH: EVQLVQSGAEVKKPGSSVRISCKASGGTFSTYGVSWVRQAPGQGLEWIGGIIPIFDTGNSAQSFQGRVTITADESTSTAYMEVSSLRSDDTAVYYCASSSRIYDLNPSLTAYYDMDVWGQGTMVTVSS VL: QAVLTQPSSVSTPPGQKVTISCSGSSSNIGNNYVSWYQQLPGTAPKLLIYDNNKRPSGVPDRFSGSKSGTSATLGITGLQTGDEADYYCGTWDSSLSAWVFGGGTKLTVL | – | – | 0.21 nM | 0.24 nM | 0.36 nM | 0.51 nM | –
5 | G1230H7 human IgG4 (antibody, V domains shown) VH: QVQLVQSGAEVKKPGSSVKVSCKASGGTFSTYGISWVRQAPGQGLEWMGGIIPIFDTGNSAQSFQGRVTITADESTSTAYMELSSLRSEDTAVYYCARSSRIYDFNSALISYYDMDVWGQGTMVTVSS VL: QSVLTQPPSVSAAPGQKVTISCSGSSSNIGNNYVSWYQQLPGTAPKLLIYDNNKRPSGIPDRFSGSKSGTSATLGITGLQTGDEADYYCGTWDSSLSAWVFGGGTKLTVL | – | – | 0.34 nM | 0.25 nM | 0.31 nM | 2.5 nM | 7.5 nM
6 | 1134D9 human IgG4 (antibody, V domains shown) VH: EVQLVQSGAEVKKPGSSVKVSCKASGGTFSTYGISWVRQAPGQGLEWIGGIIPIFDTGNSAQSFQGRVAITADESTSTAYMEVSSLRSDDTAVYYCASSSRIYDLNPSLTAYYDMDVWGQGTMVTVSS VL: QAVLTQPSSVSTPPGQKVTISCSGSSSNIGNNYVSWYQQLPGTAPKLLIYDNNKRPSGIPDRFSGSKSGTSATLGITGLQTGDEADYYCGTWDSGLSAWVFGGGTKLTVL | – | – | 0.14 nM | 0.16 nM | 0.31 nM | 0.54 nM | –
7 | 1126G5 human IgG4 (antibody, V domains shown) VH: EVQLVQSGAEVKKPGSSVKVSCKASGGTFSTYGISWVRQAPGQGLEWIGGIIPIFDTGNSAQSFQGRVTITADESTSTAYMEVSSLRSDDTAVYYCASSSRIYDFTSGLAPYYDMDVWGQGTMVTVSS VL: QAVLTQPSSVSTPPGQKVTISCSGSSSNIGNNYVSWYQQLPGTAPKLLIYDNNKRPPGIPDRFSGSKSGTSATLGITGLQTGDEADYYCGTWDSSLSTWVFGGGTKLTVL | – | – | 0.16 nM | 0.16 nM | 0.23 nM | 1.5 nM | –
8 | 1126H5 human IgG4 (antibody, V domains shown) VH: EVQLVQSGAEVKKPGSSVKVSCKASGGTFSTYGISWVRQAPGQGLEWIGGIIPIFDAGNSAQSFQGRVTITADESTSTAHMEVSSLRSEDTAVYYCASSSRIYDHHIQKGGYYDMDVWGQGTMVTVSS VL: QAVLTQPSSVSTPPGQKVTISCSGSSSNIGNNYVSWYQQLPGTAPKLLIYDNNKRPSGIPDRFSGSKSGTSATLGITGLQTGDEADYYCGTWDSSLSAWVFGGGTKLTVL | – | – | 0.15 nM | 0.23 nM | 0.38 nM | 8.7 nM | –
9 | 1131D7 human IgG4 (antibody, V domains shown) VH: EVQLVQSGAEVKKPGSSVKVSCKASGGTFSTYGISWVRQAPGQGLEWIGGIIPIFDTGNSAQSFQGRVTITADESTSTAYMEVSSLRSDDTAVYYCASSSRIYDFNSSLIAYYDMDVWGQGTMVTVSS VL: QAVLTQPSSVSTPPGQKVTISCSGSSSNIGNNYVSWYQQLPGTAPKLLIYDNNKRPSGIPDRFSGSKSGTSATLGITGLQTGDETDYYCGTWDSSLSAWVFSGGTKLTVL | – | – | 37 nM | 71 nM | 117 nM | 670 nM | –
10 | 1131H2 human IgG4 (antibody, V domains shown) VH: EVQLVQSGAEVKKPGSTVKVSCKASGGTFSTYGISWVRQAPGQGLEWIGGIIPIFDTGNSAQSFQGRVTITADESTSTAYMEVSSLRSDDTAVYYCASSSRIYDLNPSLTAYYDMDVWGQGTMVTVSS VL: QAVLTQPSSVSTPPGQKVTISCSGTSSNIGNNYVSWYQQLPGTAPKLLIYDNNKRPSGIPDRFSGSKSGTSATLGITGLQTGDEADYYCGTWDSSLSAWVFGGGTKLTVL | – | – | 0.11 nM | 0.12 nM | 0.27 nM | 0.58 nM | –
11 | 1146D7 human IgG4 (antibody, V domains shown) VH: EVQLVQSGAEVKKPGSSVKVSCKASGGTFSTYGISWVRQAPGQGLEWIGGIIPIFDTGNSAQSFQGRVTITADESTSTAYMEVSSLRSDDTAVYYCASSSRIYDLNPSLTAYYDMDVWGQGTMVTVSS VL: QAVLTQPSSVSTPPGQEVTISCSGSSTNIGNNYVSWYQQLPGTAPKLLIYDNNKRPSGIPDRFSGSKSGTSATLGITGLQTGDEADYYCGTWDSSLSAWVFGGGTKLTVL | – | – | 0.33 nM | 0.31 nM | 0.38 nM | 0.48 nM | –
12 | 1126F1 human IgG4 (antibody, V domains shown) VH: EVQLVQTGAEVKKPGSSVKVSCKASGGTFSTYGISWVRQAPGQGLEWIGGIIPIFDTGNSAQSFQGRVTITADESTSTAYMEVSSLRSDDTAVYYCASSSRIYDANRQAVPYYDMDVWGQGTMVTVSS VL: QAVLTQPSSVSTPPGQMVTISCSGSSSDIGNNYVSWYQQLPGTAPKLLIYDNNKRPSGIPDRFSGSKSGTSATLGITGLQTGDEADYYCGTWDSSLSAWVFGGGTKLTVL | – | – | 0.15 nM | 0.22 nM | 0.35 nM | 2.9 nM | –
13 | 1127F9 human IgG4 (antibody, V domains shown) VH: EVQLVQSGAEVKKPGSSVKVSCKASGGTFSTYGISWVRQAPGQGLEWIGGIIPIFDTGNSAQSFQGRVTITADESTSTAYMKVSSLRSDDTAVYYCASSSRIYDYIPGMRPYYDMDVWGQGTMVTVSS VL: QAVLTQPSSVSTPPGQKVTISCSGNSSNIGNNYVSWYQQLPGTAPKLLIYDNNKRPSGIPDRFSGSRSGTLATLGITGLQTGDEADYYCGTWDSSLSAWVFGGGTKLTVL | – | – | 0.14 nM | 0.2 nM | 0.36 nM | 0.59 nM | –
14 | 1132H9 human IgG4 (antibody, V domains shown) VH: EVQLVQSGAEVKKPGSSVKVSCKASGGTFSTYGISWVRQAPGQGLEWIGGIIPIFDTGNSAQSFQGRVTITADESTSTAYMEVSSLRSDDTAVYYCASSSRIYDLNPSLTAYYDMDVWGQGTMVTVSS VL: QAVLTQPSSVSTPPGQKVTISCSGSSSDIGNNYVSWYQQLPGTAPKLLIYDNNKRPTGIPDRFSGSKSGTSATLGITGLQTGDEADYYCGTWDSSLSAWVFGGGTKLTVL | – | – | 0.13 nM | 0.16 nM | 0.35 nM | 0.55 nM | –
15 | 1150F1 human IgG4 (antibody, V domains shown) VH: EVQLVQSGAEVKKPGSSVKVSCKASGGTFSTYGISWVRQAPGQGLEWIGGIIPIFDTGNSAQSFQDRVTITADESTSTAYMEVGSLRSDDTAVYYCASSSRIYDLNPSLTAYYDMDVWGHGTMVTVSS VL: QAVLTQPSSVSTPPGQKVTISCSGSSSNIGNNYVSWYQQLPGTAPKLLIYDNNKRPSGIPDRFSGSKSGTSATLGITGLQTGDEADYYCGTWDSSLSAWVFGGGTKLTVL | – | – | 0.15 nM | 0.19 nM | 0.32 nM | 0.47 nM | –
16 | 1127D9 human IgG4 (antibody, V domains shown) VH: EVQLVQSGAEVKKPGSSVKVSCKASGGTFSTYGISWVRQAPGQGLEWIGGIIPIFDTGNSAQSFQGRVTITADESTSTAYMEVSSLRSDDTAVYYCASSSRIYDYHTIAYYDMDVWGQGTMVTVSS VL: QAVLTQPSSVSTPPGQKVTISCSGSSSNIGNNYVSWYQQLPGTAPKLLIYDNNKRPSGIPDRFSGSKSGTSATLGITGLQTGDEADYYCGTWDSSLSAWVFGGGTKLTVL | – | – | 0.22 nM | 0.21 nM | 0.4 nM | 0.57 nM | –
